{
  "source": "patent US20170295781A1",
  "about": "(AGROSAVFE N V, published 2017)",
  "key": {"[1]": {"molecular_target": "potato lectin (Sigma) (potato) (UniProt Q9S8M0)", "experiment": "ELISA-like assay, Uvitex OB microcapsules on potato lectin-coated wells, surface coverage 20%"}, "[2]": {"molecular_target": "potato lectin (Sigma) (potato) (UniProt Q9S8M0)", "experiment": "ELISA-like assay, Uvitex microcapsules on wells coated with 5 ug/well potato lectin, surface coverage 100%"}, "[3]": {"molecular_target": "potato lectin (Sigma) (potato) (UniProt Q9S8M0)", "experiment": "ELISA-like assay, Uvitex OB microcapsules on potato lectin-coated wells, surface coverage 100%"}, "[4]": {"molecular_target": "potato lectin (Sigma) (potato) (UniProt Q9S8M0)", "experiment": "ELISA-like assay, lambda-cyhalothrin microcapsules on potato lectin-coated wells, surface coverage 20%"}, "[5]": {"molecular_target": "potato lectin (Sigma) (potato) (UniProt Q9S8M0)", "experiment": "ELISA-like assay, Uvitex OB microcapsules on potato lectin-coated wells, surface coverage 4%"}, "[6]": {"molecular_target": "potato lectin (Sigma) (potato) (UniProt Q9S8M0)", "experiment": "ELISA-like assay, Uvitex microcapsules on wells coated with 5 ug/well potato lectin, surface coverage 20%"}, "[7]": {"molecular_target": "potato lectin (Sigma) (potato) (UniProt Q9S8M0)", "experiment": "ELISA-like assay, lambda-cyhalothrin microcapsules on potato lectin-coated wells, surface coverage 4%"}, "[8]": {"molecular_target": "potato lectin (Sigma) (potato) (UniProt Q9S8M0)", "experiment": "ELISA-like assay, Uvitex microcapsules on wells coated with 5 ug/well potato lectin, surface coverage 4%"}, "[9]": {"molecular_target": "potato lectin (Sigma) (potato) (UniProt Q9S8M0)", "experiment": "ELISA-like assay, lambda-cyhalothrin microcapsules on potato lectin-coated wells, surface coverage 100%"}, "unrelated antigen [10]": {"molecular_target": "unrelated antigen", "experiment": "ELISA-like assay, Uvitex microcapsules on wells coated with unrelated antigen, surface coverage 20%"}, "unrelated antigen [11]": {"molecular_target": "unrelated antigen", "experiment": "ELISA-like assay, Uvitex microcapsules on wells coated with unrelated antigen, surface coverage 4%"}, "unrelated antigen [12]": {"molecular_target": "unrelated antigen", "experiment": "ELISA-like assay, Uvitex microcapsules on wells coated with unrelated antigen, surface coverage 100%"}, "potato lectin (Sigma) [13]": {"molecular_target": "T1, potato lectin (Sigma) (potato, UniProt Q9S8M0 23-323)", "T1 construct": "Bought glycoprotein coated on ELISA plates", "T1 sequence (looked up)": "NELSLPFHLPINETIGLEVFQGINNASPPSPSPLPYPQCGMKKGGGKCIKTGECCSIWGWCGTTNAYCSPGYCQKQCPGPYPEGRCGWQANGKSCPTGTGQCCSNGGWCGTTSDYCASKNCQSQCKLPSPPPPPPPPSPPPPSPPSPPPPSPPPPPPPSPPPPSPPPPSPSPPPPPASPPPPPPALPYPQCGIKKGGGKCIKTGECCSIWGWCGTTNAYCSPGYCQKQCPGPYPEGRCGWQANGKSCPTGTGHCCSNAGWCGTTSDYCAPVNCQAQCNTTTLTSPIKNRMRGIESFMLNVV", "experiment": "ELISA-like assay, Uvitex microcapsules on potato lectin-coated wells, 25-fold less microcapsules", "description": "An ELISA-like assay was performed using high bind half area microplates (Greiner Bio-One) coated with 5 μg/well potato lectin. Control wells included blank wells or wells coated with unrelated antigens. Plates were washed three times with PBS with 0.05%-TWEEN®-20 and blocked with 5% skimmed milk in PBS for 1 to 2 hours. VHH-coupled Uvitex-containing microcapsules were diluted to appropriate densities in 1% skimmed milk in PBS with 0.05%-TWEEN®-20. Five-fold serial dilution series were prepared and allowed to bind to the surface to compare binding of microcapsules coupled with monovalent or bivalent VHH. Microcapsules were added to the antigen-coated or control wells and allowed to bind for 1 hour. Unbound microcapsules were removed by washing five times with PBS with 0.05%-TWEEN®-20. The bottoms of ELISA plate wells were analyzed for bound microcapsules on a macrozoom microscope system (Nikon). Microcapsules were counted using Volocity image analysis software (Perkin Elmer). A DAPI filter was used to visualize Uvitex microcapsules. […] The surface area of microcapsules with coupled bivalent VHH was 15-fold above the surface area of blank microcapsules applied at this microcapsule density while the surface area of microcapsules with monovalent VHH was only six-fold above the surface area of blank microcapsules applied at this microcapsule density. […]"}, "potato lectin (Sigma) [14]": {"molecular_target": "T1, potato lectin (Sigma)", "experiment": "ELISA, potato lectin coated at 100 ug/ml, VHH at 3 ug/ml, anti-histidine detection", "description": "ELISA plates (Maxisorp, Nunc) coated with 100 μl per well 100 μg/ml potato lectin (Sigma) in PBS were coated at 4° C. overnight and coating was continued at room temperature for 1 hour on the next day. Plates were washed three times with PBS/0.05%-TWEEN®-20 and blocked with 5% skimmed milk in PBS for 1 hour. VHH (3 μg/ml) were transferred to the potato lectin-coated plates and VHH antibody fragments were allowed to bind for 1 hour at room temperature. Bound VHH were detected with sequential incubations with monoclonal mouse anti-histidine antibodies (Abd Serotec) and rabbit anti-mouse IgG whole molecule antibodies conjugated with alkaline phosphatase (RaM/AP) (Sigma) in 1% MPBS/0.05%-TWEEN®-20. Unbound antibodies were removed by washing three times with PBS/0.05%-TWEEN®-20 after each antibody incubation. The plates were washed an additional two times with PBS and 100 μl pNPP disodium hexahydrate substrate (Sigma) was added to each well and the absorbance at 405 nm was measured (see Table 2)."}},
  "data": [
    {"molecule": "unrelated control VHH coupled to microcapsules", "values": [
      {"measurement": "area of bound microcapsules (area (unit not given))", "setting": "[1]", "value": 35.4},
      {"measurement": "surface area of bound microcapsules (area (unit not given))", "setting": "[2]", "value": 142},
      {"measurement": "area of bound microcapsules (area (unit not given))", "setting": "[3]", "value": 16.7},
      {"measurement": "counts of bound microcapsules", "setting": "[4]", "value": 709, "unit": "counts"},
      {"measurement": "area of bound microcapsules (area (unit not given))", "setting": "[5]", "value": 7.53},
      {"measurement": "surface area of bound microcapsules (area (unit not given))", "setting": "[6]", "value": 43.5},
      {"measurement": "counts of bound microcapsules", "setting": "[7]", "value": 348, "unit": "counts"},
      {"measurement": "surface area of bound microcapsules (area (unit not given))", "setting": "[8]", "value": 19.2},
      {"measurement": "counts of bound microcapsules", "setting": "[9]", "value": 828, "unit": "counts"}
    ]},
    {"molecule": "Bivalent VHH 3E6 coupled to polyurea microcapsules (VHH, coupled by carbodiimide chemistry to the microcapsule shell) QVQLQESGGGLVQPGGTLSLSCAASGFNVRWYGMGWFRQAPGKEREGVACISALQETTAYADSVKGRFTLSRDNPKNTLSLQMNNLQPEDTGVYYCATTDCDDSSRMTYTSYLGQGTQVTVSSGGGGSGGGSQVQLQESGGGLVQPGGTLSLSCAASGFNVRWYGMGWFRQAPGKEREGVACISALQETTAYADSVKGRFTLSRDNPKNTLSLQMNNLQPEDTGVYYCATTDCDDSSRMTYTSYLGQGTQVTVSSAAAEQKLISEEDLNGAAHHHHHH", "values": [
      {"measurement": "surface area of bound microcapsules (area (unit not given))", "setting": "unrelated antigen [10]", "value": 22.1},
      {"measurement": "surface area of bound microcapsules (area (unit not given))", "setting": "unrelated antigen [11]", "value": 15},
      {"measurement": "surface area of bound microcapsules (area (unit not given))", "setting": "unrelated antigen [12]", "value": 45.7},
      {"measurement": "fold surface area above blank microcapsules", "setting": "potato lectin (Sigma) [13]", "value": 15, "unit": "fold"}
    ]},
    {"molecule": "VHH 3E6 (VHH, Purified hexahistidine-tagged VHH from E. coli periplasm; not shown: hexahistidine tag) VHH: QVQLQESGGGLVQPGGTLSLSCAASGFNVRWYGMGWFRQAPGKEREGVACISALQETTAYADSVKGRFTLSRDNPKNTLSLQMNNLQPEDTGVYYCATTDCDDSSRMTYTSYLGQGTQVTVSS", "values": [
      {"measurement": "absorbance at 405 nm", "setting": "potato lectin (Sigma) [14]", "value": 4, "unit": "A405"}
    ]},
    {"molecule": "VHH 5D4 (VHH, not shown: hexahistidine tag) VHH: QVQLQESGGGLVQPGGSLRLSCAASGFDMRRFGIGWFRQVAGKEREGVSCSNVHDGTTYYTNDVKGRFTIVRDNTKNMLYLQMNKLRPEDTAVYSCATTDCEATAWGTYRGYFGQGTQVTVSS", "values": [
      {"measurement": "absorbance at 405 nm", "setting": "potato lectin (Sigma) [14]", "value": 4, "unit": "A405"}
    ]},
    {"molecule": "VHH 5C4 (VHH, not shown: hexahistidine tag) VHH: QVQLQESGGGLVQPGGSLRLSCAASGFSLRYFGIGWFRQVAGKEREPVSCSNVRDGNTYYADSVKGRFTISRDNVRNTLYLQMNSLKPEDTAVYSCATTDCEATTWGTYRGYFGQGTQVTVSS", "values": [
      {"measurement": "absorbance at 405 nm", "setting": "potato lectin (Sigma) [14]", "value": 4, "unit": "A405"}
    ]},
    {"molecule": "VHH 5G5 (VHH, not shown: hexahistidine tag) VHH: QVQLQESGGGLVQPGGSLRLSCAASGFSLRYFGIGWFRQAAGKEREGISCSNVRDGNTYYADSVKGRFTISRDNVRNMLYLQMNNLKPDDTAVYSCATTDCEATTWGTYRGYFGQGTQVTVSS", "values": [
      {"measurement": "absorbance at 405 nm", "setting": "potato lectin (Sigma) [14]", "value": 4, "unit": "A405"}
    ]},
    {"molecule": "VHH 3E6 coupled to polyurea microcapsules (VHH, coupled by carbodiimide (EDC) chemistry to carboxylic acid groups on the microcapsule shell, also called Monovalent VHH 3E6; monovalent VHH; not shown: hexahistidine tag) VHH: QVQLQESGGGLVQPGGTLSLSCAASGFNVRWYGMGWFRQAPGKEREGVACISALQETTAYADSVKGRFTLSRDNPKNTLSLQMNNLQPEDTGVYYCATTDCDDSSRMTYTSYLGQGTQVTVSS", "values": [
      {"measurement": "fold surface area above blank microcapsules", "setting": "potato lectin (Sigma) [13]", "value": 6, "unit": "fold"}
    ]},
    {"molecule": "VHH 7D2 (VHH, not shown: hexahistidine tag) VHH: QVQLQESGGGLVQPGRSLKVACAAAGFSLRYYGIGWFRQAPGKEREAVSCTSANDGSTYYRDSVRGRFTISRDDGKNTVYLQMNRLKPEDTAVYYCATTDCDATSWGTWINYYGQGTQVTVSS", "values": [
      {"measurement": "absorbance at 405 nm", "setting": "potato lectin (Sigma) [14]", "value": 4, "unit": "A405"}
    ]}
  ]
}
